In paper PMC12399645 (Frontiers in Immunology, 2025):

B1: KBA2401 (antibody, V domains shown)
VH: EVQLVQSGAEVKKPGESLKISCKGSGYTFSYFWIGWVRQMPGKGLEWMGIIYPGDSDTRYSPSFQGQVTISADKSISTAYLQWSSLKASDTAMYYCARVGIEMATTYFGFWGQGTMVTVSS
VL: SYVLTQPPSVSVAPGQTARITCGGNNIGSKSVHWYQQRPGQAPVLVVYDDSDRPSEIPERFSGSSSGNTATLTISTVEAGDEADYYCQVWDSSTDHPGVFGGGTKLTVL
notes: copies: 2 + 2
B2: KBA2402 (antibody, V domains shown)
VH: EVQLVESGGGLVQPGRSLGLSCTTSGFTFGDFAMSWFRQAPGKGLEWVGFIRSKAYGGATQYAASVKGRFTISRDDSKSIAYLQMNSLKTEDTAVYYCTRAGEMATTVNRQFDYWGQGTLVTVSS
VL: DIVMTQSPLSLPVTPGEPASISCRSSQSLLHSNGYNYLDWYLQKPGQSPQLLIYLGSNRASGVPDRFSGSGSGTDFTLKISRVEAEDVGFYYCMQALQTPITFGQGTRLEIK
notes: copies: 2 + 2
B3: KBA2402_EVO17 (antibody, V domains shown)
VH: B2 VH
VL: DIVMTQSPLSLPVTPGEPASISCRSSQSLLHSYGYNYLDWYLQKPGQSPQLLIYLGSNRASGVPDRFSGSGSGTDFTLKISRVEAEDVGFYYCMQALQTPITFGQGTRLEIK
notes: copies: 2 + 2
B4: KBA2402_EVO14 (antibody, V domains shown)
VH: B2 VH
VL: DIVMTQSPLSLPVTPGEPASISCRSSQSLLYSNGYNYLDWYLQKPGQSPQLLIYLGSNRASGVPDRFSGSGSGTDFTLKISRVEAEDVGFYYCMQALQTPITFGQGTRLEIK
notes: copies: 2 + 2
B5: KBA2404 (antibody, V domains shown)
VH: EVQLVESGGGLVQPGGSLRLSCAASGFTVSSNYMSWVRQAPGKGLECVSVIYSGGSTYYGDSVKGRFTISRDNSKNRLYLQMHSLRAEDTAVYFCARIVSDAFDIWGQGTMVTVSS
VL: DIQMTSLLSPLSASVGDRVTITCRASQNINRWLAWYQQKPGKAPKLLIYMASNLESGVPSRFSGSGSGTEFSLTISSLQPDDLATYYCQQYNSYWTSYTFGQGTKLEIK
notes: IgG1 format; copies: 2 + 2
B6: KBA2403 (antibody, V domains shown)
VH: EVQLVESGGGLVQPGGSLRLSCVASGIIVSRNYMNWVRQAPGKGLEWVSVLYSGGTTEYADSVKGRFTISRDNSKNTLFLQMSSLRVEDTAVYFCAREGYGMDVWGQGATVTVSS
VL: DIQLTQSPSFLSASVGDRVTITCRAGQGISTYLAWYQQKPGKAPKLLIYSASTLQSGVPSRFSGSGSGTEFTLTISSLQPEDFATYYCQQLNNYPPAFGGGTKVEIK
notes: IgG1 format; copies: 2 + 2

Biological target: SARS-CoV-2 spike trimer protein, Wild-type (SARS-CoV-2, original Wild-type …, UniProt P0DTC2, biotin on the Avi-tag (BirA ligase))
Test: ELISA

Binder | binding result (both partners purified) | binding result (one partner purified)
B1 | binds | –
B2 | binds | –
B3 | – | binds
B4 | – | binds
B5 | binds | –
B6 | binds | –
